The supplement of paper PMC9170038

Legend:
[1] = test system: K4 kissing-loop RNA reporter; assay: apparent KD of K4 kissing-loop reporter; higher = weaker reporter binding; settings: Eterna round: R107;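 note: bound reporter read as fluorescence of individual clusters on recovered sequencing chips by microscopy, with normalized cluster intensities fitted with a binding model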
Description: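 RNA-MaP round R107: designed RNA switches with theophylline, tryptophan, arginine or FMN aptamers are transcribed on-chip within common flanks. They are titrated with a labelled K4 kissing-loop RNA reporter in RNA-MaP buffer (100 mM Tris pH 7.5, 80 mM KCl, 4 mM MgCl2), without ligand or with the indicated ligand. Median apparent KD per design.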

[2] = test system: MS2 coat protein; assay: apparent KD of MS2 coat protein; designed switch direction (-1 OFF switch, 1 ON switch): -1; higher = weaker reporter binding
In short: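 Three titration conditions were used: no input, 200 uM small-molecule ligand, and an oligonucleotide input. In each, SNAP-549-labelled MS2 coat protein was raised from 0.7 or 1.5 nM, doubling, to 3 µM over designed RNA switches transcribed on Illumina chips by stalled E. coli RNA polymerase. Curve fits of normalised cluster fluorescence gave values whose per-design median over clusters is the apparent KD.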

[3] = input ligand: theophylline 20 uM
[4] = input ligand: tryptophan 2.4 mM
[5] = input ligand: microRNA oligo, concentration not stated
[6] = Eterna round: R95, input ligand: FMN 200 uM
[7] = Eterna round: R95, input ligand: microRNA oligo, concentration not stated
[8] = Eterna round: R95, input ligand: none

Sequence	apparent KD of K4 kissing-loop reporter ([1]; input ligand: FMN 200 uM) [µM]	apparent KD of K4 kissing-loop reporter ([1]; input ligand: arginine 13.2 mM) [µM]	apparent KD of K4 kissing-loop reporter ([1]; input ligand: none) [µM]	apparent KD of K4 kissing-loop reporter [1, 3] [µM]	apparent KD of K4 kissing-loop reporter [1, 4] [µM]	apparent KD of MS2 coat protein ([2]; input ligand: FMN 200 uM) [µM]	apparent KD of MS2 coat protein ([2]; input ligand: none) [µM]	other results
AGUGGUGUAUCUUUUAAGAGUGAUGUUUUUCGAGGACCGGUACGGCCGCCACUCGAGUGAUGAGAGCGUCGUUGUGGUGAUUAGU [#15 K4 Tryptophan A Exclusion]	0.814	0.582	0.877	0.86	0.479			
AAGCAUUCUUCGGAAUGCAGACCCGCUGAGGAGGAUAUGACGAAAGUCAGAAGGCCUCAGUGAUGUUGAGGCCUCCUCAAUGGUC [Omei KL FMN A Exc A v1]	0.138	0.135	0.187	0.173	0.171			
GGGAGUAGUGCGGCCGCCACUGAGAAAGAAGAAGAAUAUAGUGAUGUUAUGUGGGAAAGGAAGAACAGGACCGGGCAUUAGAUUU [#21 K4 Tryptophan B Same State]	0.821	0.45	0.488	0.441	0.499			
UCCUGCAAUCGCCCACGAAAGUGGAUCGAUACCAGAGUCGAAAGACUCCCUUGGCAGCGAGUGAUGUUCGAAGCAGGUAAAUAAA	0.771	0.612	0.765	0.605	0.637			
UAAGAGGACCACUGCAAGAGUCCUCGAAUACGAGGACCGGUACGGCCGCCACUCGAUAACUUGUAGUGAUGUUGCAAGUAAGAAU [BrourdMod 1 - Jieux - Same State Tryptophan A]	0.0712	0.0792	0.0794	0.0792	0.0429			
AGCCGAAAGGCGAGUGCUGUCACUCCGGAAGGAGCGCCCAAAAGGGCAGGUAGGUCGCCGGAGUGAUGUUCCGGUGCAGCACUCA [Omei KL Arginine A Exc B v3]	0.572	0.497	0.784	0.533	0.482			
GGAGUUACCUGGGAUACCAGUCGGAGUCCUAGAGCUCGGAGUGAUGUUCUGGGAUGUUUCGGCCCUUGGCAGCUCUGGGACUCCC [#2 Exclusion - Theophylline B Attempt #11 (HarryS)]	0.615	0.47	0.949	0.921	0.63			
GCCGUACGCAUGGAUACCAGUUGCGAAGUGAUGUUUCGGGCGAUCAAAGGAUCGCCCUACAACCCUUGGCAGCCAUGCGUACGGC	0.158	0.0673	0.122	0.204	0.12			
AAGUGAUGUUGUAGUGAUGUUGUGAUGUUGCAGGAUAUAUAGUGAUGUAGAAGGGUAAGUACUGAUGUUGUUUGUGAGUGAUGUU [zrrszrmullin]	0.0992	0.0449	0.0786	0.0669	0.0762			
UACUUUAAUUUAUAACUAUCUUUAUUUUGUCAGGAUAUCGUAUAGUCGAGAAGGGACUCUAUCAAGUGAUGUUUGAUAUAUCGUU [JR_SSFMNA_Sub025]	0.14	0.155	0.131	0.147	0.112			
CGAUAAAAGACAGGAUAUGAGGAGAGAGAGAGAUCAGAAGGGUCACAUGAGGAUCACCCAUGUGAGUUCUCGAUAAGAAAGAGG [Prohibition 52 - Jieux - Exclusion NG 1] (Eterna round: R96, puzzle: Exclusion NG 1)						0.0193	0.021	apparent KD of MS2 coat protein [2, 5]: 0.0146 µM
UACAUGAGGAUCACCCAUGUACCUUAUGUAAGAGUGGGAAGUAAGGAUAUAUAUGAAGGAAUGAAAUAGAAGGUGCAUAGAGAG [Default title] (Eterna round: R96, puzzle: Exclusion NG 3)						0.121	0.0933	apparent KD of MS2 coat protein [2, 5]: 0.0974 µM
CCUGUGUAAGGAUAUGCCUGGCCGUGAGGCCAGAUUGAAUAGCAGAAGGUACAUGAGGAUCACCCAUGUACGGG [jl-ex4-4.61 ViennaUCT mod] (Eterna round: R97, puzzle: Exclusion 4)						0.206	0.0329	
GUCACAUGGACAUAGGAUCACAUGAGGAUCACCCAUGUGACUAACAAGCUUUUUGUUCGUCUUAUGUCCAUGUGAAA [Stov1/15-B2] (Eterna round: R97, puzzle: Sensor, turn-off variant 1)						0.0153	0.0112	
GAGUGACAUGAGGAUCACCCAUGUGAGGAUAUCGGACGGACCAAAUUAACAACCACCGCGAGAAGGCACAUCGG [Exclusion 1 V21] (puzzle: Exclusion 1)								apparent KD of MS2 coat protein [2, 6]: 0.0584 µM; apparent KD of MS2 coat protein [2, 7]: 0.0989 µM; apparent KD of MS2 coat protein [2, 8]: 0.107 µM
ACAUGACUGCUAGGAUAUAGAUGACAUGAGGAUCACCCAUGUUAUCCCAUGUUGACGGAAACCGACUAGAAGGAGCAGCAUAUG [Ex NG2 #9] (Eterna round: R96, puzzle: Exclusion NG 2)						0.118	0.0453	apparent KD of MS2 coat protein [2, 5]: 0.0435 µM
GUGGAACAAGGAUAUCUAACCUCGGACAUGAGGAUCACCCAUGUAUGUCUCAAGAGACCUAGAGAAGGUGUUCGUG [Eternabot (L1) Solution 32] (Eterna round: R97, puzzle: Exclusion 5)						0.0508	0.0307	
UUACUGCAAGGAUAUACAUGAGGAUCACCCAUGUUAAUGACACGGUGCAGCUUCGACAGUAGAAGGUGCGUGGG [Eternabot (L1) Solution 71] (Eterna round: R97, puzzle: Exclusion 3)						0.0432	0.0347	
CCAAGCUUAUUCAUUAACAACAUGAGGAUCACCCAUGUAUAGGCAAUUAUGACUGGGCUCUUUAGUGCUCGUCUUAU [Sensor-V1 #25] (Eterna round: R97, puzzle: Sensor, turn-off variant 1)						0.0162	0.0147	
CCAAGCUUUUUCAUUAACAACAUGAGGAUCACCCAUGUGUAAGCUAUUAGGUUUGGGCUCUUUAGUGCUCGUCUUAU [JR_STOV1_Sub041] (Eterna round: R97, puzzle: Sensor, turn-off variant 1)						0.0145	0.0135	
UGCCAAGCAGGAUAUGCCCGGAAUAACAUGAGGAUCACCCAUGUGACCGAUUGAUGUUCUGCAGAAGGGCAUGGAA [Mat - Exclusion 5 - Eli Mod - D2] (Eterna round: R97, puzzle: Exclusion 5)						0.0172	0.0357	
GGCUCGCCUCACAUGAGGAUCACCCAUGUACAAAACAAGAGGCAGGAUAUGGGCCGCGCAGCGGGCCAGAAGGGCCGCAUGGGU [Edsodidige] (Eterna round: R96, puzzle: Exclusion NG 3)						0.0629	0.113	apparent KD of MS2 coat protein [2, 5]: 0.0677 µM
UAACUGCUCGUCUUGUUAAACAUGAGGAUCACCCAUGUCAGCCUGUAAGGGUACGGUAGAUAGGCCCGAUUGCAUGA [Eternabot (L1) Solution 11] (Eterna round: R97, puzzle: Sensor, turn-off variant 1)						0.0269	0.0312	
GAAAAGGAAGGAUAUACGAAAAAAAAGGGUAGAAAAAAAACACAUGAGGAUCACCCAUGUAGAAGGUCCAAAAG [salish99_ex2_r3_092] (puzzle: Exclusion 2)								apparent KD of MS2 coat protein [2, 6]: 0.151 µM; apparent KD of MS2 coat protein [2, 7]: 0.0435 µM; apparent KD of MS2 coat protein [2, 8]: 0.0545 µM
UCACGGCUCGGAGGAUAUGACACAUGAGGAUCACCCAUGUGUGUAAGCCAAUAAACCUACAAAUGUCAGAAGGCCGCGCCUCAU [Eternabot solution 9] (Eterna round: R96, puzzle: Exclusion NG 2)								apparent KD of MS2 coat protein [2, 5]: 0.0108 µM
UACAUGAGGAUCACCCAUGUUUUGUCGUGUAUGGUAUUUAUCUAGGAUAUCAAUUGAAUUAUUUAUGAGAAGGAGAAUAUUAAU [JMF's solution 58] (Eterna round: R96, puzzle: Exclusion NG 3)						0.042	0.049	apparent KD of MS2 coat protein [2, 5]: 0.0364 µM
UGGUCACAUGAGGAUCACCCAUGUCAGGAUAUCGUCACUGGAGCCUCGGCUCCAGUGACGAGAAGGGACAUAAU [E1/6-A2] (Eterna round: R97, puzzle: Exclusion 1)						0.267	0.254	
